Laboratory results: article doi:10.1101/2021.11.12.468217 (bioRxiv, 2021)
Values belong to the binder of their own block, whether it stands above or below them.

Key:
[1] = target: T1, DesKC_H188E, DesKC trapped in the phosphotransferase state (Bacillus subtilis, UniProt O34757, H188E); test: crystal structure
T1 sequence: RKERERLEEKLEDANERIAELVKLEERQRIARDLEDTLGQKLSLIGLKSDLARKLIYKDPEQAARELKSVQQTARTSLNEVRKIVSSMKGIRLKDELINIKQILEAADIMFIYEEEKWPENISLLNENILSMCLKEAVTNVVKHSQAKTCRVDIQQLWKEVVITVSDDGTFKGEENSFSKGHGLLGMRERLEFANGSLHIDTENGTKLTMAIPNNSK

SEC = target: the molecule itself; test: SEC
[2] = target: the molecule itself

- binding result [1]: binds
B1: DesR_REC-Q10A, receiver domain of DesR with Q10A, as crystallised with DesKC_H188E (domain or fragment)
chain: MISIFIAEDAQMLLGALGSLLNLEDDMEVVGKGTTGQDAVDFVKKRQPDVCIMDIEMPGKTGLEAAEELKDTGCKIIILTTFARPGYFQRAIKAGVKGYLLKDSPSEELANAIRSVMNGKRIYAPELMEDLYSEA

B2: Phosphorylated DesR-REC (P~DesRREC), wild type (domain or fragment)
chain: MISIFIAEDQQMLLGALGSLLNLEDDMEVVGKGTTGQDAVDFVKKRQPDVCIMDIEMPGKTGLEAAEELKDTGCKIIILTTFARPGYFQRAIKAGVKGYLLKDSPSEELANAIRSVMNGKRIYAPELMEDLYSEA
- binding result (SEC): binds

B3: Phosphorylated DesR_REC-Q10A (domain or fragment)
chain: MISIFIAEDAQMLLGALGSLLNLEDDMEVVGKGTTGQDAVDFVKKRQPDVCIMDIEMPGKTGLEAAEELKDTGCKIIILTTFARPGYFQRAIKAGVKGYLLKDSPSEELANAIRSVMNGKRIYAPELMEDLYSEA
- Kd [2]: 1440 nM
- fold increase of the KD of dimerization against wild type P~RR [2]: 4 fold
